Experiments:
Test in all cases: binding to purified HLA
HLA-DR6(13) = HLA-DR6(13) (human)
DRB1*0701 (DR7) = biological target: DRB1*0701 (DR7)
DRB4*0101 (DRw53) = biological target: DRB4*0101 (DRw53)
DRB5*0101 (DR2w2β2) = biological target: DRB5*0101 (DR2w2β2)
[1] = biological target: DQA1*0501/DQB1*0201 (DQ2)
DRB1*0802 (DR8w2) = biological target: DRB1*0802 (DR8w2)
DRB3*0101 (DR52a) = biological target: DRB3*0101 (DR52a)
DRB1*0901 (DR9) = biological target: DRB1*0901 (DR9)
DRB1*0404 (DR4w14) = biological target: DRB1*0404 (DR4w14)
DRB1*0405 (DR4w15) = biological target: DRB1*0405 (DR4w15)
[2] = biological target: DQA1*0301/DQB1*0301 (DQ3.1)
[3] = biological target: DQA1*0301/DQB1*0302 (DQ3.2)
DRB1*0401 (DR4w4) = biological target: DRB1*0401 (DR4w4)
DRB1*0101 (DR1) = DRB1*0101 (DR1) (human, UniProt P01903 26-254)
DRB1*1101 (DR5w11) = biological target: DRB1*1101 (DR5w11)
DRB1*1501 (DR2w2β1) = DRB1*1501 (DR2w2β1) (human)
DRB1*0301 (DR3w17) = biological target: DRB1*0301 (DR3w17)
DRB1*1201 (DR5w12) = biological target: DRB1*1201 (DR5w12)

| IC50 (HLA-DR6(13)) [nM] | IC50 (DRB1*0701 (DR7)) [nM] | IC50 (DRB4*0101 (DRw53)) [nM] | IC50 (DRB5*0101 (DR2w2β2)) [nM] | IC50 [1] [nM] | IC50 (DRB1*0802 (DR8w2)) [nM] | IC50 (DRB3*0101 (DR52a)) [nM] | IC50 (DRB1*0901 (DR9)) [nM] | IC50 (DRB1*0404 (DR4w14)) [nM] | IC50 (DRB1*0405 (DR4w15)) [nM] | IC50 [2] [nM] | IC50 [3] [nM] | IC50 (DRB1*0401 (DR4w4)) [nM] | IC50 (DRB1*0101 (DR1)) [nM] | IC50 (DRB1*1101 (DR5w11)) [nM] | IC50 (DRB1*1501 (DR2w2β1)) [nM] | IC50 (DRB1*0301 (DR3w17)) [nM] | IC50 (DRB1*1201 (DR5w12)) [nM] | Binder |
| --- | --- | --- | --- | --- | --- | --- | --- | --- | --- | --- | --- | --- | --- | --- | --- | --- | --- | --- |
| 559 | – | – | – | – | – | – | – | – | – | – | – | – | – | – | – | – | – | SYPARYANAMAVGAT [B. lentus subtilisin epitope peptide, amino acids 160-174] |
| – | 138 | 8260 | 1730 | 1300 | 2030 | 6160 | 164 | 5540 | 1350 | 63 | 1050 | 142 | 13 | 5550 | – | – | – | SYPARYANAMAVGAT [B. lentus .160] |
| – | 154 | 31 | 15700 | 670 | 1710 | 2010 | 46 | 5.7 | 166 | 440 | 2070 | 33 | 6.5 | 2380 | 21 | 8740 | 80 | GTVAALNNSIGVLGV [BPN' Y217L .70] |
| – | 58 | 1070 | 1020 | 97 | 2190 | 119 | 43 | 166 | 37 | 2180 | 80 | 30 | 8.8 | 3020 | 683 | – | 1240 | NGIEWAIANNMDVIN [BPN' Y217L .109] |
| 2010 | – | – | – | – | – | – | – | – | – | – | – | – | – | – | – | – | – | GSISYPARYANAMAV [B. lentus subtilisin epitope peptide, amino acids 157-171] |
| 9.8 | – | – | – | – | – | – | – | – | – | – | – | – | – | – | – | – | – | NGIEWAIANNMDVIN [B. amyloliquifaciens subtilisin BPN' Y217L epitope peptide, amino acids 109-123] |
| – | 724 | > 9670 | – | 6160 | > 16300 | > 9430 | 1480 | 7580 | 6780 | 6010 | 5010 | 4790 | 1060 | – | 865 | 16400 | – | GSISYPARYANAMAV [B. lentus 157] |

— patent US20080220450A1 (published 2008)
